US20230383007A1 (BIOSION, published 2023)

Legend:
human TROP2-his protein [1] = target: T1, human TROP2-his protein (human, UniProt P09758 27-274); experiment: indirect ELISA, plate coated with human TROP2-his; unit taken from the x axis (Con of mAb, ng/mL)
T1 construct: also called biotin labeled human TROP2-his protein
T1 sequence: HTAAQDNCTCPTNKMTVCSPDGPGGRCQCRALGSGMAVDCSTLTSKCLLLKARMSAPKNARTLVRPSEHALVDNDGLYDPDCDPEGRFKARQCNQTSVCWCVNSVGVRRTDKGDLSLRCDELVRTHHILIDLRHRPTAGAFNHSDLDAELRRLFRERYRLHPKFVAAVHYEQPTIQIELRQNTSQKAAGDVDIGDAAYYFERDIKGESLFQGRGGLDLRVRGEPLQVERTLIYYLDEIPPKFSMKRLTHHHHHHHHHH
Description: The single domain antibodies of the disclosure were tested in the indirect ELISA for their cross-reaction with cynomolgus TROP2 protein. Briefly, 96-well micro plates were coated with 100 μl 2 μg/ml human TROP2-his protein (prepared in-house with SEQ ID NO: 16) in carbonate/bicarbonate buffer (pH 9.6) overnight at 4° C. ELISA plates were washed once with wash buffer (PBS+0.05% v/v Tween-20, PBST) and then blocked with 200 μl/well blocking buffer (5% w/v non-fatty milk in PBST) for 2 hours at 37° C. Plates were washed 4 times and incubated with 100 μl/well serially diluted anti-TROP2 antibodies of the disclosure or controls (starting at 66.7 nM, 5-fold serial dilution in 2.5% w/v non-fatty milk in PBST) for 40 minutes at 37° C. ELISA plates were washed 4 times again and incubated with Peroxidase AffiniPure F(ab′)₂ Fragment Goat Anti-Human IgG, Fey fragment specific (Jackson Immuno Research, Cat #109-036-098, 1:5000 dilution in PBST buffer, 100 μl/well) for 40 minutes at 37° C. After a final wash, plates were incubated with 100 μl/well TMB (Innoreagents) at room temperature. The reaction was stopped 3-10 minutes later at room temperature with 50 μl/well 1M H₂SO₄, and the absorbance of each well was read on a microplate reader using dual wavelength mode with 450 nm for TMB and 630 nm as the reference wavelength. The OD (450-630) values were plotted against antibody concentration. Data was analyzed using Graphpad Prism software and EC₅₀ values were reported.

[2] = target: T2, cynomolgus TROP2-his protein (cynomolgus, UniProt P09758 27-272 (human entry), limits assumed); experiment: indirect ELISA, plate coated with 1 ug/ml TROP2-his; bacterial culture supernatant
T2 construct: also called Cyno TROP2-his; Cynomolgus monkey TROP2-his protein
T2 chain: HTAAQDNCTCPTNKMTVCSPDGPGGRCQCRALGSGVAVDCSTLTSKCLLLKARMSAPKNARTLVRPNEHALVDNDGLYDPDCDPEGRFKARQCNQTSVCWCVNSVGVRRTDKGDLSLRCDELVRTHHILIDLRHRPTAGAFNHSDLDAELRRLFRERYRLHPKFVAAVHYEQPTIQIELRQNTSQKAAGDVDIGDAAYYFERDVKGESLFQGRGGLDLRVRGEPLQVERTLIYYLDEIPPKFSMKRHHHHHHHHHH
Description: (§1) ELISA plates were coated with 100 μl 1 μg/ml human TROP2-his protein (in house made with SEQ ID NO: 16), or 1 μg/ml cynomolgus TROP2-his protein (in house made with SEQ ID NO: 19) in carbonate/bicarbonate buffer (pH 9.6) overnight at 4° C., washed once with wash buffer (PBS+0.05% v/v Tween-20, PBST) and then blocked with 200 μl/well blocking buffer (5% w/v non-fatty milk in PBST) for 2 hours at 37° C. Plates were washed 4 times, and respectively incubated with 100 μl bacterial culture supernatant, and sacituzumab (used as the benchmark, also referred to as BM or BM1 hereinafter, in house made with heavy chain and light chain amino acid sequences set forth in SEQ ID NOs: 17 and 18) in 5% w/v non-fatty milk in PBST at 200 ng/ml, for 40 minutes at 37° C. The plates were washed 4 times, and incubated with THE™ HA Tag Antibody [HRP], mAb, Mouse Antibody (1:5000 dilution in PBST, GenScript, Cat #A01296, 100 μl/well, for plates with bacterial culture supernatans of the disclosure) or Peroxidase AffiniPure F(ab′)₂ Fragment Goat Anti-Human IgG, Fey fragment specific (Jackson Immunoresearch, Cat #109-036-098, for plates with the benchmark), for 40 minutes at 37° C. After a final wash, plates were incubated with 100 μl/well ELISA substrate TMB (Innoreagents, Cat #TMB-S-002) at room temperature. The reaction was stopped in 3-10 minutes with 50 μl/well 1M H₂SO₄, and the absorbance of each well was read on a microplate reader using dual wavelength mode with 450 nm for TMB and 630 nm as the reference wavelength. When the OD of a sample well was 2 times higher than the OD of the blank well, the sample can be determined as positive.

human TROP2-his protein [3] = target: T1, human TROP2-his protein; experiment: as above
Description: as §1

human TROP2-his protein [4] = target: T1, human TROP2-his protein; experiment: competitive ELISA: antibody pre-mixed with biotin labeled human TROP2-his, added to plate coated with the benchmark (sacituzumab analog); unit taken from the x axis (ng/mL)
Description: The anti-TROP2 antibodies were tested for their epitope binding in a competitive ELISA assay. Briefly, 100 μl of the benchmark at 1 μg/mL in PBS was coated on 96-well micro plates for 2 hours at 37° C. ELISA plates were washed once with wash buffer (PBS+0.05% v/v Tween-20, PBST) and then blocked with 200 μl blocking buffer (5% w/v non-fatty milk in PBST) for 2 hours at 37° C. While blocking, the anti-TROP2 antibodies of the disclosure or controls were diluted with biotin labeled human TROP2-his protein (SEQ ID NO: 16, 34 ng/mL in 2.5% w/v non-fatty milk in PBST), starting at 80 nM with a 5-fold serial dilution, and incubated at room temperature for 40 minutes. After plate washing 4 times, the antibody/TROP2-his protein mixtures were added to benchmark coated plates, 100 μl per well. After incubation at 37° C. for 40 minutes, plates were washed 4 times again using wash buffer. Then the plates were added and incubated with 100 μl Peroxidase Streptavidin (1:10000 dilution in PBST buffer, Jackson Immunoresearch, Cat #016-030-084) for 40 minutes at 37° C. Plates were washed again using wash buffer. […] The absorbance of each well was read on a microplate reader using dual wavelength mode with 450 nm for TMB and 630 nm as the reference wavelength, and the OD (450-630) values were plotted against antibody concentration. Data was analyzed using Graphpad Prism software and IC₅₀ values were reported.

[5] = target: T2, cynomolgus TROP2-his protein; experiment: SPR Biacore T200; antibody captured on anti-human IgG CM5 chip, TROP2-his as analyte in 2-fold dilutions from 160 nM; 1:1 Langmuir fit
Excerpt: (§2) The purified anti-TROP2 mouse monoclonal antibodies (mAbs) were characterized for binding affinity and binding kinetics by Biacore T200 system (GE healthcare, Pittsburgh, PA, USA). Briefly, goat anti-human IgG (GE healthcare, Cat #BR100839, Human Antibody Capture Kit) was covalently linked to a CM5 chip (carboxy methyl dextran coated chip from GE healthcare #BR100530) via primary amines, using a standard amine coupling kit (GE healthcare, Pittsburgh, PA, USA) provided by Biacore. Un-reacted moieties on the chip (biosensor) surface were blocked with ethanolamine. The anti-TROP2 antibodies of the disclosure and the benchmark at the concentration of 2 μg/ml were respectively flowed onto the chip at a flow rate of 10 μL/min. Then, serially diluted human TROP2-his protein (prepared in-house with SEQ ID NO: 16), or cynomolgus TROP2-his protein (prepared in-house with SEQ ID NO: 19), 2-fold dilution in HBS-EP⁺ buffer (provided by Biacore) starting at 160 nM, were flowed onto the chip at a flow rate of 30 μL/min. The antigen-antibody association kinetics was followed for 2 minutes and the dissociation kinetics was followed for 10 minutes. The association and dissociation curves were fit to a 1:1 Langmuir binding model using BIAcore evaluation software.

human TROP2-his protein [6] = target: T1, human TROP2-his protein; experiment: as above
Excerpt: as §2

B1: single domain antibody 01-5A (VHH)
VHH: QVQLVESGGGTVGAGGSLRLSCVVSGLPYERYCVAWFRQGPGKEREGVARILSDGTTSYSDSVKGRFTISKDNAKNTLYLQMNSLKSEDTATYYCAAEAFRPFTPSDGDCTTVLGIDYWGKGTLVTVSS
EC50 (human TROP2-his protein [1]): 0.0177 mg/L
Indirect ELISA OD (450-630) [2]: 0.56 OD (450-630)
Indirect ELISA OD (450-630) (human TROP2-his protein [3]): 1.03 OD (450-630)
IC50 (human TROP2-his protein [4]): 0.0417 mg/L
Kd [5]: 0.647 nM
koff [5]: 0.000172 s⁻¹
kon [5]: 266000 M⁻¹ s⁻¹
Kd (human TROP2-his protein [6]): 0.0975 nM
koff (human TROP2-his protein [6]): 2.73e-05 s⁻¹
kon (human TROP2-his protein [6]): 280000 M⁻¹ s⁻¹
